# In patent US9664676B2, “RNA sequences that induce fluorescence of small molecule fluorophores” (Cornell University, priority 2013, dated 2017):
# B1: tdBroccoli: dBroccoli in tRNA scaffold, SEQ ID NO: 40 (nucleic acid)
# chain: GCCCGGATAGCTCAGTCGGTAGAGCAGCGGAGACGGTCGGGTCCATCTGAGACGGTCGGGTCCAGATATTCGTATCTGTCGAGTAGAGTGTGGGCTCAGATGTCGAGTAGAGTGTGGGCTCCGCGGGTCCAGGGTTCAAGTCCCTGTTCGGGCGCCA
# modifications: tdBroccoli
# B2: Spinach2: RNA aptamer SEQ ID NO: 2; Spinach1.2 variant containing all six mutations (nucleic acid)
# chain: GAUGUAACUGAAUGAAAUGGUGAAGGACGGGUCCAGUAGGCUGCUUCGGCAGCCUACUUGUUGAGUAGAGUGUGAGCUCCGUAACUAGUUACAUC
# modifications: listed as RNA, chemistry not given here
# notes: Spinach1.2 variant containing all six mutations
# How the values were obtained:
# HEK293T cells = experiment: Flow cytometry of HEK293T cells expressing 5S rRNA-aptamer fusions with DFHBI-1T; format: cell-based; settings: 5S fusions, HEK293T, 40 μM DFHBI-1T
# Protocol: FIG. 24 illustrates the quantification of the flow cytometry analysis of aptamers expression in mammalian cells. To compare specific aptamers' brightness in mammalian cells, HEK293T cells were transfected with two plasmids: one expressing aptamer (with or without tRNA) fused to 5S rRNA and another expressing mCherry fluorescent protein. Cells were then treated with 40 μM DFHBI-1T and analyzed on FACSAria III instrument in two channels: green (ex=488 nm; em=525±50 nm) and red (ex=561 nm and em=610±20). For quantification, mean fluorescent signal of the non-negative population was calculated and then mean fluorescent signal of the negative population was subtracted from it to assess specific, not background fluorescent signal. Finally, this number was multiplied by the percentage of the non-negative population to provide the total fluorescent signal of the non-negative population. These numbers are plotted on the bar graph above. Where indicated, cells were also pre-treated with 5 mM MgSO4. Error bar indicates robust SD calculated by FlowJo program, used for data analysis.
# Imaging 5S-tBroccoli and 5S-t-tdBroccoli: Plasmids were transfected into HEK293T cell using FuGENE HD reagent (Promega) following manufacture's protocol. Cell imaging was carried out as previously described for 5S-Spinach (Paige et al., “RNA Mimics of Green Fluorescent Protein,” Science 333(6042): 642-6 (2011), which is hereby incorporated by reference in its entirety) with DFHBI-1T instead of DFHBI. […]
# Flow cytometry was used to quantify average brightness of tRNA. Transfected cells were analyzed in two channels: green (ex=488 nm; em=525±50 nm) and red (ex=561 nm; em=610±20). […] As evidenced from FIG. 14A, 5S-tBroccoli and 5S-tdBroccoli are clearly detectable in the green fluorescence channel and this specific signal appears only upon cells treatment with DFHBI-1T (FIG. 23).
# [1] = In-gel imaging of tBroccoli and tdBroccoli (DFHBI-1T / SYBR Gold staining); format: biochemical; settings: gel band intensity, normalized to molecular weight
# Protocol: In-Gel Imaging of Spinach-Containing RNAs: Total bacterial RNA was purified using Trizol LS reagent (Life Technologies) following the manufacturer's protocol. Typically, 200-500 ng of total RNA or 50-100 ng of in vitro transcribed RNA was loaded into a well of precast 6% TBE-Urea Gel (Life Technologies) and ran at 270-300 V in 1×TBE buffer. RiboRuler Low Range RNA Ladder (Thermo Scientific) was used as band size standard.
# After the gel was run to completion, the gel was washed 3×5 min with water and then stained for 30 min in 10 μM DFHBI or DFHBI-1T in buffer containing 40 mM HEPES pH 7.4, 100 mM KCl, 1 mM MgCl2. Then gel was imaged using a ChemiDoc MP with 470/30 nm excitation and 532/28 nm emission. Next, to see all the RNA in the sample, the gel was again washed 3×5 min with water followed by staining for 30 min with SYBR Gold (or Green) dye (Life Technologies) diluted 1/10000 in TBE buffer. Then gel was imaged under the same instrument using preset SYBR Gold (or Green) channel (302 nm excitation and 590/110 nm emission). Gel bands intensities were quantified in Image Lab 5.0 software (Bio-Rad). The bacterial 5S rRNA band was used for loading normalization.
# [2] = Folding assay (fraction of RNA folded, DFHBI); format: physicochemical
# Protocol: Folding Assay: The folding assay involves measurement of fluorescence under two conditions, one in which RNA is in excess relative to DFHBI, and one in which the DFHBI is in excess relative to RNA. As Spinach and DFHBI form a 1:1 stoichiometric complex, the maximum amount of complex that can be formed is determined by the limiting component. In the first condition, the fluorescence was determined by incubation of 0.1 μM DFHBI and 100-fold excess (10 μM) Spinach. This value was used to define the fluorescence of 0.1 μM Spinach-DFHBI complex. It was assumed that even if nearly all Spinach is misfolded or unfolded, there will be enough properly folded Spinach to stoichiometrically bind 0.1 μM DFHBI. This was confirmed by measuring fluorescence after doubling the RNA to 20 μM, which caused no increase in fluorescence. In the second condition, the fluorescence obtained using 10 μM DFHBI and 0.1 μM Spinach was measured. In theory, up to 0.1 μM Spinach-DFHBI can form if all the Spinach is folded. However, if a portion of Spinach is unfolded, the fluorescence will be proportionately less than the fluorescence of 0.1 μM Spinach-DFHBI. Thus, this approach can reveal the fraction of Spinach that is folded under diverse conditions.
# Fluorescence was measured for each RNA under the following conditions: (i) 0.1 μM RNA and 10 μM DFHBI, and (ii) 0.1 μM DFHBI and 10 μM RNA. For each condition, the signal from DFHBI without RNA was subtracted from each signal. Fluorescence was measured in 20 mM HEPES pH 7.4, 100 mM KCl and 1 mM MgCl2 at the designated temperature. Fluorescence measurements were performed using a PerkinElmer LS-55 fluorescence spectrometer using the following instrument parameters: excitation wavelength, 460 nm; emission wavelength, 501 nm; slit widths, 10 nm. Signal from the first condition (limiting RNA) was divided by the signal from the second condition (limiting dye) to determine the fraction folded.
# [3] = Magnesium dependence of aptamer fluorescence; format: physicochemical
# Protocol: To measure magnesium dependence 1 μM RNA was incubated with 10 μM 1T in 40 mM HEPES pH 7.4, 100 mM KCl buffer with different concentrations of MgCl2 and then fluorescence emission was measured on a plate reader.
# E. coli = experiment: Whole-cell fluorescence measurements of E. coli expressing Spinach or Spinach2; format: cell-based, Escherichia coli
# Protocol: Cloning Spinach2 for Expression in E. coli: Spinach and Spinach2 were PCR-amplified with primers containing the EagI restriction sites on both the 5′ and 3′ ends of the Spinach sequence.
# Whole-Cell Fluorescence Measurements of E. coli: BL21 cells were transformed to harbor either pET28c-tRNA-Spinach or pET28c-tRNA-Spinach2, and grown in Luria broth with 100 μg/ml kanamycin to OD600 0.4 at room temperature. The cells were then induced with addition of 1 mM IPTG for 2 h at room temperature. After induction, cells were normalized for cell density and split into two aliquots. One aliquot per sample was incubated at room temperature, and the other was incubated for 20 min at 37° C. Cells were then measured for total fluorescence using a Tecan Safirell plate reader with 460±10 nm excitation and emission was recorded at 510±10 nm. Data shown represent mean and s.e.m. values for three independent experiments.
# [4] = In vitro fluorescence (brightness) of Spinach RNAs, mutants and flanked/fused constructs with DFHBI; format: biochemical; settings: for fold brighter than the same construct fused to Spinach: in vitro
# Text: Preparation and Analysis of Spinach and Spinach Mutants: RNAs were created by using the appropriate single-stranded DNA templates (Integrated DNA Technologies) and PCR amplification using primers that included a 5′ T7 promoter sequence to generate double-stranded DNA templates. PCR products were then purified with PCR purification columns (Qiagen) and used as templates for in vitro T7 transcription reactions (Epicentre) as described previously (Paige et al., “RNA mimics of green fluorescent protein,” Science 333: 642-646 (2011), which is hereby incorporated by reference in its entirety). RNA was purified using ammonium acetate precipitation, and quantified using both absorbance values and the Riboquant Assay kit (BD Biosciences). Photophysical characterization of Spinach2 was carried out as previously described (Paige et al., “RNA mimics of green fluorescent protein,” Science 333: 642-646 (2011), which is hereby incorporated by reference in its entirety).
# Preparation and In Vitro Analysis of Flanked Spinach and Spinach2 Constructs: Spinach and Spinach2 constructs flanked on either side by 50 base pairs were generated by PCR. For Spinach, the following primers were used:
# The 50-base-pair sequences were taken from the human β-actin 3′ untranslated region. Both forward primers encode the T7 RNA polymerase promoter for in vitro transcription. 5S-Spinach and 5S-Spinach2 were amplified by PCR from pAV-5S-Spinach and pAV-5S-Spinach2, respectively, using the following primers: […]
# PCR products were used as templates for in vitro transcription by Ampliscribe T7 RNA polymerase as previously described (Paige et al., “RNA mimics of green fluorescent protein,” Science 333: 642-646 (2011), which is hereby incorporated by reference in its entirety). Fluorescence measurements were recorded for 0.1 μM RNA in the presence of 10 μM DFHBI in buffer composed of 20 mM HEPES pH 7.4, 100 mM KCl and […] as described above.
# Next, systematic mutagenesis was carried out to identify thermostable Spinach mutants with improved folding. Because elevated G+C content can lead to stable misfolded structures (Kiliszek et al., “Crystal Structures of CGG RNA Repeats with Implications for Fragile X-Associated Tremor Attaxia Syndrome,” Nuc. Acids Res. 39:7308-7315 (2011); Sobczak et al., “RNA Structure of Trinucleotide Repeats Associated with Human Neurological Diseases,” Nuc. Acids Res. 31:5469-5482 (2003), each of which is hereby incorporated by reference in its entirety), it was reasoned that decreasing the overall G+C content could promote proper folding. Scanning mutagenesis was carried out, mutating every […] and cytosine to adenosine or uracil, respectively. In regions where G and C residues were predicted to form a base pair, both residues were mutated to A and U, to maintain the complementarity. Each of these 35 mutants was synthesized in vitro, and the fraction folded was measured at 25° C. and 42° C. Fluorescence signals that were equal to or greater than Spinach at 25° C. indicated equal or greater percent folded. A higher percentage signal at 42° C. indicated improved thermostability relative to Spinach.
# [5] = Thermostability measurements of Spinach RNAs with DFHBI; format: physicochemical; settings: fluorescence of RNA-DFHBI complex in vitro, 20-60 °C; ±s.e.m.
# Protocol: Thermostability Measurements: Spinach or Spinach2 (1 μM) was incubated in 20 mM HEPES pH 7.4, 100 mM KCl, 1 mM MgCl2 and 10 μM DFHBI. Fluorescence values were recorded in 1° C. increments from 20° C. to 60° C., with a 5-min incubation at each temperature to allow for equilibration. Fluorescence measurements were performed using a PerkinElmer LS-55 fluorescence spectrometer using the following instrument parameters: excitation wavelength, 460 nm; emission wavelength, 501 nm; slit widths, 10 nm. Curves were fitted using the Boltzmann sigmoidal equation in GraphPad Prism 5 software. Values presented are mean and s.e.m. from three independent measurements.
molecule,measurement,setting,value
B1,brighter than tBroccoli (mean fluorescence intensity of the green population),HEK293T cells,70%
same,fold more fluorescent than tBroccoli,[1],~1.8 fold
B2,percentage folded,"[2]; 25 °C, in the presence of the tRNA (tRNA^Lys3 scaffold)",80±6.1%
same,percentage folded,"[2]; 25 °C, no tRNA scaffold",58±4.8%
same,percentage folded,"[2]; 37 °C, in the presence of the tRNA (tRNA^Lys3 scaffold)",60±5.4%
same,percentage folded,"[2]; 37 °C, no tRNA scaffold",37±3.3%
same,percent of maximal fluorescence in magnesium-free buffer,"[3]; 1 μM RNA, 10 μM DFHBI-1T",11%
same,magnesium concentration giving maximal fluorescence,[3]; MgCl2 titration,~1 mM
same,percent of maximal fluorescence at ~300 μM magnesium,[3]; MgCl2 titration,50%
same,fold brighter than Spinach in Escherichia coli,E. coli; 25 °C,1.4 fold
same,fold brighter than Spinach in Escherichia coli,E. coli; 37 °C,2.1 fold
same,fluorescence retained when fused to the CGG repeat-containing RNA,[4],80%
same,fold brighter than Spinach in vitro,[4]; 25 °C,1.8 fold
same,fold brighter than Spinach in vitro,[4]; 37 °C,2.8 fold
same,brightness of flanked RNA relative to the same aptamer alone,"[4]; flanked by 50 nt of RNA on both 5′ and 3′ ends, 0.1 μM RNA",90%
same,brightness of flanked Spinach2 versus flanked Spinach,[4]; flanked by 50 nt of RNA on both ends,tenfold brighter than flanked Spinach
same,fold brighter than the same construct fused to Spinach,[4]; fusion with 5S RNA,3 fold
same,fold brighter than the same construct fused to Spinach,[4]; fusion with 7SK RNA,6 fold
same,fold brighter than the same construct fused to Spinach,[4]; fusion with (CGG)60 RNA,20 fold
same,fluorescence retained by tagged Spinach2 relative to Spinach2 alone,"[4]; fusions with 5S, 7SK and (CGG)60 RNA, all cases",more than 70%
same,Percent Brightness (at 42° C.),[4]; percent of signal remaining at 42 °C for a given mutant,41%
same,Relative Brightness (at 25° C.),"[4]; relative to Spinach, 25 °C",1.8
same,melting temperature (Tm),[5],38±0.4 °C
